# Reference: publication doi:10.1101/2022.08.14.503930 (bioRxiv, 2022)
# B1: OPTN S2D (S177D, S473D) (natural protein, UniProt Q96CV9 1-577, looked up)
# chain: MSHQPLSCLTEKEDSPSESTGNGPPHLAHPNLDTFTPEELLQQMKELLTENHQLKEAMKLNNQAMKGRFEELSAWTEKQKEERQFFEIQSKEAKERLMALSHENEKLKEELGKLKGKSERSSEDPTDDSRLPRAEAEQEKDQLRTQVVRLQAEKADLLGIVSELQLKLNSSGSSEDDFVEIRMAEGEAEGSVKEIKHSPGPTRTVSTGTALSKYRSRSADGAKNYFEHEELTVSQLLLCLREGNQKVERLEVALKEAKERVSDFEKKTSNRSEIETQTEGSTEKENDEEKGPETVGSEVEALNLQVTSLFKELQEAHTKLSEAELMKKRLQEKCQALERKNSAIPSELNEKQELVYTNKKLELQVESMLSEIKMEQAKTEDEKSKLTVLQMTHNKLLQEHNNALKTIEELTRKESEKVDRAVLKELSEKLELAEKALASKQLQMDEMKQTIAKQEEDLETMTILRAQMEVYCDDFHAERAAREKIHEEKEQLALQLAVLLKENDAFEDGGRQSLMEMQSRHGARTSDSDQQAYLVQRGAEDRDWRQQRNIPIHSCPKCGEVLPDIDTLQIHVMDCII
# notes: optineurin (OPTN), TBK1 phospho-mimetic form; pGST2-GST-TEV-OPTN(S177D S473D), derived from vectors of Chang et al., 2021; also called OPTN S177D S473D; phosphomimetic OPTN S2D; source: E. coli Rosetta pLySS, purified (Glutathione Sepharose, TEV cleavage, Superdex 200); not shown: GST, N-terminal, cleaved
# Biological target: T1, GFP-TBK1 (UniProt Q9UHD2 1-729)
# T1 construct: TBK1, insect codon optimized gene from GenScript; source: Sf9, purified (Glutathione Sepharose, TEV cleavage, Superdex 200)
# Assay: microscopy-based bead protein-protein interaction assay; GST-4xUb (10 uM) on Glutathione Sepharose beads with OPTN S177D S473D 500 nM, GFP-TBK1 500 nM and PI3Kc1-mCh 200 nM; 25 mM TRIS-Cl pH 7.5, 150 mM NaCl, 1 mM DTT; 30 min, confocal
# Details: both partners purified
binder,measurement,value
B1,binding result,binds
